From article PMC11287265 come the findings set out here.

This experiment deals with SHP2 N-terminal SH2 domain, T42A (human). Kind of experiment: fluorescence polarisation. For orientation: In fluorescence polarisation assays a small probe gives low polarisation when free and higher when bound to something large.

“fluorescent phosphopeptide derived from pTyr1179 of insulin receptor substrate 1 (IRS-1)” came in with a fold tighter binding against N-SH2 WT of 5 fold.
